Measured values as given in patent US20180085432A1, “STING (Stimulator of Interferon Genes), A Regulator of Innate Immune Responses” (University of Miami, priority 2008, published 2018).

Assays:
STING [1] = target: STING (Homo sapiens, UniProt Q86WV6); experiment: STING cell based assay, drug library screen
STING [2] = target: T1, STING (Mus musculus, UniProt Q3TBT3); experiment: STING trafficking in MEFs stably transfected with HA-STING after ISD stimulation; assay type: cell-based, murine; details: Brefeldin A (0.1 ng/ml) or chloroquine (0.1 mM) for 1 hour prior to ISD stimulation
T1 construct: expressed in transfected cells
T1 sequence (Q3TBT3 1-378): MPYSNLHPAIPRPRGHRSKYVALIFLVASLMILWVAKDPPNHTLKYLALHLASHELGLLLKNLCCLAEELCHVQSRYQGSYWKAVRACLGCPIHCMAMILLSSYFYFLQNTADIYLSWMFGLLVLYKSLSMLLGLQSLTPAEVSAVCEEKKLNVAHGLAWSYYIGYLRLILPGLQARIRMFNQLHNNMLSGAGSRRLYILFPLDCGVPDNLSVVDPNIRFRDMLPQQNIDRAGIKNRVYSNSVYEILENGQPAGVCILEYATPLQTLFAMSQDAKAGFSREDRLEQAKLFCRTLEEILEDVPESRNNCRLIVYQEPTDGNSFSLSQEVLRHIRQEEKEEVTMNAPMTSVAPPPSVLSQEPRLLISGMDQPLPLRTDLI
Procedure: FIG. 32B: MEFs stably transfected with HA-STING were treated with Brefeldin A (0.1 ng/ml) or chloroquine (0.1 mM) for 1 hour prior to ISD stimulation (3 hours 1 ng/ml in Lipofectamine 2000). Green=anti-HA and red=anti-calreticulin. FIG. 32C: Wild type MEFs were treated with Brefeldin A as above and IFNβ mRNA measured. FIGS. 32D, 32E: 293T cells were treated with various concentrations of Brefeldin A as above were co-transfected with STING, constitutively active IRF3 or IRF7 and IFN-luciferase reporter plasmid. Luciferase was measured after 24 hours. FIGS. 32F, 32G: Macrophages treated with various chloroquine amounts for one hour were treated with ISD (1 ng/ml), poly (dAT-dAT) [1 ng/ml] or LPS (1ng/ml) and after 16 hours IFNβ or IL6 measured by ELISA. FIG. 32H: STING^−/− MEFS were transfected with HA-STING or HA-STINGΔSP (that lacks the first 36 amino acids representing a potential signal peptide motif) for 24 hours prior to treatment with ISD (1 ng/ml). After 3 hours STING localization was measured using immunofluorescence and an anti-HA antibody (green) or anti calreticulin antibody (red). FIG. 32I: 293T cells were co-transfected with HA-STING or HA-STINGΔSP and an IFN-Luciferase plasmid and after 24 hours luciferase was measured. […] Asterisks indicate significant difference (P<0.05) as determined by Student's t-test. Error bars indicate s.d. […]

A366 peptide = experiment: screening of kinases for S366 of STING (33P-ATP); assay type: biochemical; details: kinase mixed with peptide and 33P-ATP
Procedure: (§1) The activity of 217 protein kinase targets were evaluated against 2 peptides (A366 and S366) as substrate. Protein kinases were mixed with each peptide and ^33P-ATP and then activity (CPM) was measured. The below kinases were identified as phosphorylating S366 in STING. Identification of kinases which target this serine opens up novel avenues for drug discovery. Drugs that target this association may inhibit STING activity and be used for therapeutic purposes to inhibit STING activity. STING over activity may lead to inflammatory diseases which can exacerbate cancer.

S366 peptide = experiment: screening of kinases for S366 of STING (33P-ATP); assay type: biochemical; details: for Fold inducton: S366 peptide vs A366 peptide; for Activity, S366 peptide: kinase mixed with peptide and 33P-ATP
Procedure: as §1

STING (Homo sapiens, UniProt Q86WV6), sequence (Q86WV6 whole entry): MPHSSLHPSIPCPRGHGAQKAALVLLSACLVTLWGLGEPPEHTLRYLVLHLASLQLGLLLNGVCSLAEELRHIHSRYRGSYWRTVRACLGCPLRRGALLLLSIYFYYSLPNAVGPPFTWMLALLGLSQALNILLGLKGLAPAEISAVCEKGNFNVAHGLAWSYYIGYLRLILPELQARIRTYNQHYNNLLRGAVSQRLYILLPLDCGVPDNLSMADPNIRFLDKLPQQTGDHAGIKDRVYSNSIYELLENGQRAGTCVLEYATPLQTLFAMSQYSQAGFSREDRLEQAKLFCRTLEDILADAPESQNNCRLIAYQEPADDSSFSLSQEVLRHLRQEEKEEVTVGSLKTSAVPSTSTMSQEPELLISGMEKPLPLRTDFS

## C[C@@H]1O[C@@H](O[C@H]2C[C@@H](O)[C@]3(CO)[C@H]4[C@H](O)C[C@]5(C)[C@@H]([C@@H]6COC(=O)C6)CC[C@]5(O)[C@@H]4CC[C@]3(O)C2)[C@H](O)[C@H](O)[C@H]1O [dihydroouabain]
STING [1]
  Activators of STING: Activators of STING

## O=C(O)/C=C\C(=O)O.O=C1/C(=C/c2ccccc2)C[C@@]2(O)[C@H]3Cc4ccc(O)c5c4[C@@]2(CCN3CC2CC2)[C@H]1O5 [BNTX maleate salt hydrate]
STING [1]
  Activators of STING: Activators of STING

## CCN(CC)CCCC(C)Nc1ccnc2cc(Cl)ccc12 (stereo not shown) [chloroquine]
STING [2]
  STING trafficking: but not chloroquine blocked STING trafficking

## C[C@H]1CCC/C=C/[C@@H]2C[C@H](O)C[C@H]2[C@H](O)/C=C/C(=O)O1 [Brefeldin A]
STING [2]
  STING trafficking: blocked STING trafficking

B1: ULK1 (enzyme)
chain: MEPGRGGTETVGKFEFSRKDLIGHGAFAVVFKGRHREKHDLEVAVKCINKKNLAKSQTLLGKEIKILKELKHENIVALYDFQEMANSVYLVMEYCNGGDLADYLHAMRTLSEDTIRLFLQQIAGAMRLLHSKGIIHRDLKPQNILLSNPAGRRANPNSIRVKIADFGFARYLQSNMMAATLCGSPMYMAPEVIMSQHYDGKADLWSIGTIVYQCLTGKAPFQASSPQDLRLFYEKNKTLVPTIPRETSAPLRQLLLALLQRNHKDRMDFDEFFHHPFLDASPSVRKSPPVPVPSYPSSGSGSSSSSSSTSHLASPPSLGEMQQLQKTLASPADTAGFLHSSRDSGGSKDSSCDTDDFVMVPAQFPGDLVAEAPSAKPPPDSLMCSGSSLVASAGLESHGRTPSPSPPCSSSPSPSGRAGPFSSSRCGASVPIPVPTQVQNYQRIERNLQSPTQFQTPRSSAIRRSGSTSPLGFARASPSPPAHAEHGGVLARKMSLGGGRPYTPSPQVGTIPERPGWSGTPSPQGAEMRGGRSPRPGSSAPEHSPRTSGLGCRLHSAPNLSDLHVVRPKLPKPPTDPLGAVFSPPQASPPQPSHGLQSCRNLRGSPKLPDFLQRNPLPPILGSPTKAVPSFDFPKTPSSQNLLALLARQ
A366 peptide of STING
  Activity (cpm), kinase mixed with peptide and 33P-ATP: 12200 cpm
S366 peptide of STING
  Activity (cpm), kinase mixed with peptide and 33P-ATP: 209000 cpm
A366 peptide
  Activity, A366 peptide: 12221 cpm
S366 peptide
  Fold inducton: 17.10
  Activity, S366 peptide: 209014 cpm

B2: TBK1 (protein kinase panel) (enzyme)
chain: MQSTSNHLWLLSDILGQGATANVFRGRHKKTGDLFAIKVFNNISFLRPVDVQMREFEVLKKLNHKNIVKLFAIEEETTTRHKVLIMEFCPCGSLYTVLEEPSNAYGLPESEFLIVLRDVVGGMNHLRENGIVHRDIKPGNIMRVIGEDGQSVYKLTDFGAARELEDDEQFVSLYGTEEYLHPDMYERAVLRKDHQKKYGATVDLWSIGVTFYHAATGSLPFRPFEGPRRNKEVMYKIITGKPSGAISGVQKAENGPIDWSGDMPVSCSLSRGLQVLLTPVLANILEADQEKCWGFDQFFAETSDILHRMVIHVFSLQQMTAHKIYIHSYNTATIFHELVYKQTKIISSNQELIYEGRRLVLEPGRLAQHFPKTTEENPIFVVSREPLNTIGLIYEKISLPKVHPRYDLDGDASMAKAITGVVCYACRIASTLLLYQELMRKGIRWLIELIKDDYNETVHKKTEVVITLDFCIRNIEKTVKVYEKLMKINLEAAELGEISDIHTKLLRLSSSQGTIETSLQDIDSRLSPGGSLADAWAHQEGTHPKDRNVEKLQVLLNCMTEIYYQFKKDKAERRLAYNEEQIHKFDKQKLYYHATKAMTHFTDECVKKYEAFLNKSEEWIRKMLHLRKQLLSLTNQCFDIEEEVSKYQEYTNELQETLPQKMFTASSGIKHTMTPIYPSSNTLVEMTLGMKKLKEEMEGVVKELAENNHILERFGSLTMDGGLRNVDCL
A366 peptide of STING
  Activity (cpm), kinase mixed with peptide and 33P-ATP: 6600 cpm
S366 peptide of STING
  Activity (cpm), kinase mixed with peptide and 33P-ATP: 16700 cpm
A366 peptide
  Activity, A366 peptide: 6603 cpm
S366 peptide
  Fold inducton: 2.52
  Activity, S366 peptide: 16651 cpm

B3: ULK2 (enzyme)
chain: MEVVGDFEYSKRDLVGHGAFAVVFRGRHRQKTDWEVAIKSINKKNLSKSQILLGKEIKILKELQHENIVALYDVQELPNSVFLVMEYCNGGDLADYLQAKGTLSEDTIRVFLHQIAAAMRILHSKGIIHRDLKPQNILLSYANRRKSSVSGIRIKIADFGFARYLHSNMMAATLCGSPMYMAPEVIMSQHYDAKADLWSIGTVIYQCLVGKPPFQANSPQDLRMFYEKNRSLMPSIPRETSPYLANLLLGLLQRNQKDRMDFEAFFSHPFLEQGPVKKSCPVPVPMYSGSVSGSSCGSSPSCRFASPPSLPDMQHIQEENLSSPPLGPPNYLQVSKDSASTSSKNSSCDTDDFVLVPHNISSDHSCDMPVGTAGRRASNEFLVCGGQCQPTVSPHSETAPIPVPTQIRNYQRIEQNLTSTASSGTNVHGSPRSAVVRRSNTSPMGFLRPGSCSPVPADTAQTVGRRLSTGSSRPYSPSPLVGTIPEQFSQCCCGHPQGHDSRSRNSSGSPVPQAQSPQSLLSGARLQSAPTLTDIYQNKQKLRKQHSDPVCPSHTGAGYSYSPQPSRPGSLGTSPTKHLGSSPRSSDWFFKTPLPTIIGSPTKTTAPFKIPKTQASSNLLALVTRHGPAEE
A366 peptide of STING
  Activity (cpm), kinase mixed with peptide and 33P-ATP: 7380 cpm
S366 peptide of STING
  Activity (cpm), kinase mixed with peptide and 33P-ATP: 15600 cpm
A366 peptide
  Activity, A366 peptide: 7377 cpm
S366 peptide
  Fold inducton: 21.13
  Activity, S366 peptide: 15580 cpm
